What was measured:
cynomolgus TLR3 = cynomolgus TLR3 (cynomolgus, UniProt A0A2K5WT39 32-912); test: cell-based or functional assay
murine TLR3, full length = murine TLR3, full length (mouse, UniProt Q99MB1 26-905); test: cell-based or functional assay
[1] = biological target: T1, human TLR3 extracellular domain (ECD) (human, UniProt O15455 24-703); test: ELISA, human TLR3 ECD coated, goat anti-human Fc:HRP, luminescence
T1 construct: amino acids 1-703 of human TLR3; the structural model covers residues 30-687; also called huTLR3 ECD; TLR3 ECD

Row | IC50, poly(I:C) ISRE luciferase reporter gene assay, HEK293T cells with full-length murine TLR3 (murine TLR3, full length) | binding result [1] | Binder | also measured
1 |  |  | mAb 15EVQ (antibody, human IgG4 S228P, kappa, F234A L235A) heavy: not shown light: DIQMTQSPSSLSASVGDRVTITCRASQSIGLYLAWYQQKPGKAPKLLIYAASSLQSGVPSRFSGSGSGTDFTLTISSLQPEDFATYYCQQGNTLSYTFGQGTKVEIKRTVAAPSVFIFPPSDEQLKSGTASVVCLLNNFYPREAKVQWKVDNALQSGNSQESVTEQDSKDSTYSLSSTLTLSKADYEKHKVYACEVTHQGLSSPVTKSFNRGEC | IC50, cyno ISRE reporter gene assay (cynomolgus TLR3): 1.74 µg/mL; IC50, cyno NF-κB reporter gene assay (cynomolgus TLR3): 4.18 µg/mL
2 | 22 µg/mL |  | mAb 15 (antibody, human IgG4 S228P, kappa) heavy: not shown light: DIQMTQSPSSLSASVGDRVTITCRASQSIGLYLAWYQQKPGKAPKLLIYAASSLQSGVPSRFSGSGSGTDFTLTISSLQPEDFATYYCQQGNTLSYTFGQGTKVEIKRTVAAPSVFIFPPSDEQLKSGTASVVCLLNNFYPREAKVQWKVDNALQSGNSQESVTEQDSKDSTYSLSSTLTLSKADYEKHKVYACEVTHQGLSSPVTKSFNRGEC | 
3 |  | binds | mAb 15-9 (antibody, human IgG4 S228P, kappa, F234A L235A, V domains shown, also called HC: F50R/V34I/G35S/A61S/Q67H/E99Q) VH: EVQLVQSGAEVKKPGESLKISCKGSGYSFTNYWISWVRQMPGKGLEWMGRIDPSDSYTNYSPSFQGHVTISADKSISTAYLQWSSLKASDTAMYYCARQLYQGYMDTFDSWGQGTLVTVSS VL: DIQMTQSPSSLSASVGDRVTITCRASQSIGLYLAWYQQKPGKAPKLLIYAASSLQSGVPSRFSGSGSGTDFTLTISSLQPEDFATYYCQQGNTLSYTFGQGTKVEIKR | 
4 |  | binds | mAb 15-5 (antibody, human IgG4 S228P, kappa, F234A L235A, V domains shown, also called HC: F50R/V34I/G35S/A61S/Q67H) VH: EVQLVQSGAEVKKPGESLKISCKGSGYSFTNYWISWVRQMPGKGLEWMGRIDPSDSYTNYSPSFQGHVTISADKSISTAYLQWSSLKASDTAMYYCARELYQGYMDTFDSWGQGTLVTVSS VL: DIQMTQSPSSLSASVGDRVTITCRASQSIGLYLAWYQQKPGKAPKLLIYAASSLQSGVPSRFSGSGSGTDFTLTISSLQPEDFATYYCQQGNTLSYTFGQGTKVEIKR | 
5 |  | binds | mAb 15-6 (antibody, human IgG4 S228P, kappa, F234A L235A, V domains shown, also called HC: V34I/G35S/E99Q) VH: EVQLVQSGAEVKKPGESLKISCKGSGYSFTNYWISWVRQMPGKGLEWMGFIDPSDSYTNYAPSFQGQVTISADKSISTAYLQWSSLKASDTAMYYCARQLYQGYMDTFDSWGQGTLVTVSS VL: DIQMTQSPSSLSASVGDRVTITCRASQSIGLYLAWYQQKPGKAPKLLIYAASSLQSGVPSRFSGSGSGTDFTLTISSLQPEDFATYYCQQGNTLSYTFGQGTKVEIKR | 
6 | 0.5 µg/mL |  | mAb 5429 (antibody, mouse IgG1, kappa, V domains shown) VH: EVQLVASGGGLVKPGASLKLSCVASGFTFSDYWMAWVRQTPGKPMEYIGDIKSDGSKVNYAPSLKNRFTISRDNARTTLYLQMSNVRSEDTATYYCNRDIGPDWYFDFWGPGTMVTVSS VL: DIQMTQSPTSLSASLGETVTIECRASEDIYNGLAWYQQKPGKSPQLLIYDSNSLHTGVPSRFSGRGSGTQYSLRINSLQSEDVASYFCQQYYDYPLTFGSGTKLEIKR | 
7 | 0.7 µg/mL |  | mAb c1811 (antibody, mouse IgG1, kappa, V domains shown) VH: EVQLVASGGGLVKPGASLKLSCVASGFTFSDYWMAWVRQTPGKPMEYIGDIKSDGSKVNYAPSLKNRFTISRDNARTTLYLQMSNVRSEDTATYYCNRDIGPDWYFDFWGPGTMVTVSS VL: DIQMTQSPTSLSASLGETVTIECRASEDIYNGLAWYQQKPGKSPQLLIYDSNSLHTGVPSRFSGRGSGTQYSLRINSLQSEDVASYFCQQYYDYPLTFGSGTKLEIKR | 

Source: patent EP3020822A1 (Janssen Biotech, Inc., dated 2016)
